14 molecules from US20230265151A1, “GIP/GLP1 CO-AGONIST COMPOUNDS” (priority 2020, published 2023) can be followed below.

The target of one experiment is T1, human GLP-1 receptor (human, UniProt P43220 24-463).
T1 construct: whole, on cells; also called hGLP-1R; human glucagon-like peptide-1 receptor
In words: SPA competition vs [125I]-GLP-1, hGLP-1R membranes. The method, boiled down:
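Competition binding in 25 mM HEPES pH 7.4, 2.5 mM CaCl₂, 1 mM MgCl₂, 0.1% bacitracin, 0.003% TWEEN-20, EDTA-free protease inhibitors. IC₅₀ from four-parameter nonlinear fit; Kᵢ given as geometric mean ± SEM, n = independent replicates on different days.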

The target in a further experiment is T2, human glucagon receptor (human, UniProt P47871 26-477).
T2 construct: whole, on cells; also called hGCGR; hGcgR
In words: SPA competition vs [125I]-Gcg, hGcgR membranes. As for the experimental part:
The binding buffer contains 25 mM 4-(2-hydroxyethyl)-1-piperazineethanesulfonic acid (HEPES), pH 7.4, 2.5 mM CaCl₂, 1 mM MgCh, 0.1% (w/v) bacitracin (Research Products), 0.003% (w/v) Polyoxyethylenesorbitan monolaurate (TWEEN®-20), and Roche Complete™ Protease Inhibitors without EDTA. […] Plates are sealed and mixed on a plate shaker (setting 6) for 1 minute and read with a PerkinElmer Trilux MicroBeta® scintillation counter after 12 hours of incubation/settling time at room temperature.
Data are analyzed using four-parameter (curve maximum, curve minimum, IC₅₀, Hill slope) nonlinear regression routines (Genedata Screener, version 12.0.4, Genedata AG, Basal, Switzerland). […] Values for Kᵢ are reported as the geometric mean, with error expressed as the standard error of the mean (SEM) and n is equal to the number of independent replicates (determined in assays performed on different days).

The next experiment deals with T3, human GIP receptor (human, UniProt P48546 22-466).
T3 construct: whole, on cells; also called hGIPR; human glucose-dependent insulinotropic polypeptide receptor
T3 sequence (looked up): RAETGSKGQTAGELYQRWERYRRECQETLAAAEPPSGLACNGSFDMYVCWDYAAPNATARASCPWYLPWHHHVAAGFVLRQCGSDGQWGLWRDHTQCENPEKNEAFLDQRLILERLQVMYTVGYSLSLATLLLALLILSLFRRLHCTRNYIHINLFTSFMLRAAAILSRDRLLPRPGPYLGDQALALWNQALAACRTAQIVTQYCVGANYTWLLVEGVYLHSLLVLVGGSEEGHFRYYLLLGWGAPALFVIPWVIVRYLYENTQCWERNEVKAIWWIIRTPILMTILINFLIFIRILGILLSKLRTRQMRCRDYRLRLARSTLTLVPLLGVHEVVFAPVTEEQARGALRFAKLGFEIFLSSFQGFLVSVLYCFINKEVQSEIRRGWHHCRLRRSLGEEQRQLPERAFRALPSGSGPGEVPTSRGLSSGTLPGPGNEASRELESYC
Nature of the experiment: SPA competition vs [125I]-GIP, hGIPR membranes.

T2 sequence (P47871 26-477): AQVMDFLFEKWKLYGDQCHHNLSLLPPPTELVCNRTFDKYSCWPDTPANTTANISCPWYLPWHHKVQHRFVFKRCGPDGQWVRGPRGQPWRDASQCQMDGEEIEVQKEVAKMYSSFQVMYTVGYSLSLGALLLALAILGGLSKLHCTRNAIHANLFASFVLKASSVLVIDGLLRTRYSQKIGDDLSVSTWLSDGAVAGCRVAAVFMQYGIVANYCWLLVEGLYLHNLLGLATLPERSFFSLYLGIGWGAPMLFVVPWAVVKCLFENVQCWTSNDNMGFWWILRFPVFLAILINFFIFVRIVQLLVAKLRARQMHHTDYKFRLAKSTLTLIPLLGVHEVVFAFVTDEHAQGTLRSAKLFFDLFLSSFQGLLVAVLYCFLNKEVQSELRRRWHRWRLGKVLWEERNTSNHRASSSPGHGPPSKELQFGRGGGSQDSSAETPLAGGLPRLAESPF

B1: Y-Aib-EGT-αMeF(2F)-TSD-Bip-SI-αMeL-LD-Orn-K((2-[2-(2-Amino-ethoxy)-ethoxy]-acetyl)2-(γ-Glu)-CO-(CH2)12-CO2H)AQ-Aib-EFI-(D-Glu)-αMeY-LIEGGK((2-[2-(2-Amino-ethoxy … (peptide)
peptide: YXEGTXTSDXSIXLDXKAQXEFIXXLIEGGKSSGAPPPS
modifications: Aib2, αMeF(2F)6, Bip10, αMeL13, Orn16, K17(Z1), Aib20, D-Glu24, αMeY25, K31(Z1), C-term NH2; Z1=AEEA2-(γ-Glu)-CO-(CH2)12-CO2H
As usually defined, the Ki is a measure of affinity in units of concentration, obtained from inhibition or displacement. Lower therefore signals tighter binding. For the molecule B1, the values for the Ki in the experiment with human GLP-1 receptor, with human glucagon receptor and in the experiment with human GIP receptor were 5.17 nM, 299 nM and 0.252 nM, respectively.

B2: Y-Aib-EGT-αMeF(2F)-TSD-OMeY-SI-αMeL-LD-Orn-K((2-[2-(2-Amino-ethoxy)-ethoxy]-acetyl)2-(γ-Glu)-CO-(CH2)12-CO2H)AQ-Aib-EFI-(D-Glu)-αMeY-LIEGGK((2-[2-(2-Amino-ethox … (peptide)
peptide: YXEGTXTSDXSIXLDXKAQXEFIXXLIEGGKSSGAPPPS
modifications: Aib2, αMeF(2F)6, OMeY10, αMeL13, Orn16, K17(Z1), Aib20, D-Glu24, αMeY25, K31(Z1), C-term NH2; Z1=AEEA2-(γ-Glu)-CO-(CH2)12-CO2H
As for B2, the Ki with human GLP-1 receptor came to 1.15 nM; with human glucagon receptor it was 1920 nM; in the experiment with human GIP receptor, 0.208 nM.

B3: Y-Aib-EGT-αMeF(2F)-TSDY-Aib-I-αMeL-LD-Orn-K((2-[2-(2-Amino-ethoxy)-ethoxy]-acetyl)2-(γ-Glu)-CO-(CH2)12-CO2H)AQ-Aib-EFI-(D-Glu)-αMeY-LIEGGK((2-[2-(2-Amino-ethoxy … (peptide)
peptide: YXEGTXTSDYXIXLDXKAQXEFIXXLIEGGKSSGAPPPS
modifications: Aib2, αMeF(2F)6, Aib11, αMeL13, Orn16, K17(Z1), Aib20, D-Glu24, αMeY25, K31(Z1), C-term NH2; Z1=AEEA2-(γ-Glu)-CO-(CH2)12-CO2H
Consider B3, for which the inhibition constant (Ki) with human GLP-1 receptor turned out to be 0.876 nM; with human glucagon receptor it was 42 nM; in the experiment with human GIP receptor, 0.0296 nM.

B4: Y-Aib-EGT-αMeF(2F)-TSD-4Pal-SI-αMeL-LD-Orn-K((2-[2-(2-Amino-ethoxy)-ethoxy]-acetyl)-(εK)-(γ-Glu)-CO-(CH2)12-CO2H)AQ-Aib-EFI-(D-Glu)-αMeY-LIEGGK((2-[2-(2-Amino-e … (peptide)
peptide: YXEGTXTSDXSIXLDXKAQXEFIXXLIEGGKSSGAPPPS
modifications: Aib2, αMeF(2F)6, 4Pal10, αMeL13, Orn16, K17(Z1), Aib20, D-Glu24, αMeY25, K31(Z1), C-term NH2; Z1=AEEA-(εK)-(γ-Glu)-CO-(CH2)12-CO2H
As to B4, the inhibitory constant (Ki) came out at 1.38 nM with human GLP-1 receptor, 868 nM with human glucagon receptor and 0.077 nM with human GIP receptor.

B5: Y-Aib-EGT-αMeF(2F)-TSD-4Pal-SI-αMeL-LD-Orn-K((2-[2-(2-Amino-ethoxy)-ethoxy]-acetyl)2-(γ-Glu)-CO-(CH2)14-CH3)AQ-Aib-K((2-[2-(2-Amino-ethoxy)-ethoxy]-acetyl)2-(γ- … (peptide)
peptide: YXEGTXTSDXSIXLDXKAQXKFIXXLIEGGPSSGAPPPS
modifications: Aib2, αMeF(2F)6, 4Pal10, αMeL13, Orn16, K17(Z1), Aib20, K21(Z1), D-Glu24, αMeY25, C-term NH2; Z1=AEEA2-(γ-Glu)-CO-(CH2)14-CH3
As for B5, the inhibition constant (Ki) with human GLP-1 receptor stood at 0.246 nM; with human glucagon receptor, 0.293 nM; with human GIP receptor it was 0.0231 nM.

B6: Y-Aib-EGT-αMeF(2F)-TSD-4Pal-SI-αMeL-LD-Orn-IAQ-Aib-EFI-(D-Glu)-αMeY-LIK((2-[2-(2-Amino-ethoxy)-ethoxy]-acetyl)2-(γ-Glu)-CO-(CH2)12-CO2H)GGK((2-[2-(2-Amino-ethox … (peptide)
peptide: YXEGTXTSDXSIXLDXIAQXEFIXXLIKGGKSSGAPPPS
modifications: Aib2, αMeF(2F)6, 4Pal10, αMeL13, Orn16, Aib20, D-Glu24, αMeY25, K28(Z1), K31(Z1), C-term NH2; Z1=AEEA2-(γ-Glu)-CO-(CH2)12-CO2H
For B6, the Ki with human GLP-1 receptor is 1.96 nM; with human glucagon receptor, 139 nM; in the experiment with human GIP receptor, 0.0722 nM.

B7: Y-Aib-EGT-αMeF(2F)-TSD-4Pal-SI-αMeL-LD-Orn-K((2-[2-(2-Amino-ethoxy)-ethoxy]-acetyl)2-(γ-Glu)-CO-(CH2)10-CH3)AQ-Aib-K((2-[2-(2-Amino-ethoxy)-ethoxy]-acetyl)2-(γ- … (peptide)
peptide: YXEGTXTSDXSIXLDXKAQXKFIXXLIEGGPSSGAPPPS
modifications: Aib2, αMeF(2F)6, 4Pal10, αMeL13, Orn16, K17(Z1), Aib20, K21(Z1), D-Glu24, αMeY25, C-term NH2; Z1=AEEA2-(γ-Glu)-CO-(CH2)10-CH3
On to B7, for which the Ki in the experiment with human GLP-1 receptor was found to be 0.25 nM; in the experiment with human glucagon receptor, 8.29 nM; with human GIP receptor, 0.0403 nM.

B8: Y-Aib-EGT-αMeF(2F)-TSD-4Pal-SI-αMeL-LD-Orn-K((2-[2-(2-Amino-ethoxy)-ethoxy]-acetyl)2-CO-(CH2)12-CO2H)AQ-Aib-K((2-[2-(2-Amino-ethoxy)-ethoxy]-acetyl)2-CO-(CH2)12 … (peptide)
peptide: YXEGTXTSDXSIXLDXKAQXKFIXXLIEGGPSSGAPPPS
modifications: Aib2, αMeF(2F)6, 4Pal10, αMeL13, Orn16, K17(Z1), Aib20, K21(Z1), D-Glu24, αMeY25, C-term NH2; Z1=AEEA2-CO-(CH2)12-CO2H
As to B8, the values for the Ki with human GLP-1 receptor, with human glucagon receptor and in the experiment with human GIP receptor were 0.881 nM, 625 nM and 0.0627 nM, respectively.

B9: Y-Aib-EGT-αMeF(2F)-TSD-4Pal-SI-αMeL-LD-Orn-IAQ-Aib-K((2-[2-(2-Amino-ethoxy)-ethoxy]-acetyl)2-(γ-Glu)-CO-(CH2)12-CO2H)FI-(D-Glu)-αMeY-LIK((2-[2-(2-Amino-ethoxy)- … (peptide)
peptide: YXEGTXTSDXSIXLDXIAQXKFIXXLIKGGPSSGAPPPS
modifications: Aib2, αMeF(2F)6, 4Pal10, αMeL13, Orn16, Aib20, K21(Z1), D-Glu24, αMeY25, K28(Z1), C-term NH2; Z1=AEEA2-(γ-Glu)-CO-(CH2)12-CO2H
Take B9: the Ki with human GLP-1 receptor amounted to 3.38 nM; with human glucagon receptor, 53.9 nM; with human GIP receptor, 0.0454 nM.

B10: Y-Aib-EGT-αMeF(2F)-TSDK((2-[2-(2-Amino-ethoxy)-ethoxy]-acetyl)3-(γ-Glu)-CO-(CH2)10-CH3)-Aib-I-αMeL-LD-Orn-K((2-[2-(2-Amino-ethoxy)-ethoxy]-acetyl)3-(γ-Glu)-CO-( … (peptide)
peptide: YXEGTXTSDKXIXLDXKAQXEFIXXLIEGGPSSGAPPPS
modifications: Aib2, αMeF(2F)6, K10(Z1), Aib11, αMeL13, Orn16, K17(Z1), Aib20, D-Glu24, αMeY25, C-term NH2; Z1=AEEA3-(γ-Glu)-CO-(CH2)10-CH3
In the case of B10, the inhibition constant Ki in the experiment with human GLP-1 receptor was 0.198 nM; with human glucagon receptor, 345 nM; with human GIP receptor it was 0.0245 nM.

B11: Y-Aib-EGT-αMeF(2F)-TSD-4Pal-SI-αMeL-LD-Orn-K((2-[2-(2-Amino-ethoxy)-ethoxy]-acetyl)2-(γ-Glu)-CO-(CH2)14-CH3)AQ-Aib-EFI-(D-Glu)-αMeY-LIEGK((2-[2-(2-Amino-ethoxy) … (peptide)
peptide: YXEGTXTSDXSIXLDXKAQXEFIXXLIEGKPSSGAPPPS
modifications: Aib2, αMeF(2F)6, 4Pal10, αMeL13, Orn16, K17(Z1), Aib20, D-Glu24, αMeY25, K30(Z1), C-term NH2; Z1=AEEA2-(γ-Glu)-CO-(CH2)14-CH3
As to B11, the Ki stood at 0.52 nM with human GLP-1 receptor, 0.646 nM with human glucagon receptor and 0.0361 nM with human GIP receptor.

B12: Y-Aib-EGT-αMeF(2F)-TSD-4Pal-SI-αMeL-LD-Orn-IAQ-Aib-EFI-(D-Glu)-αMeY-LIK((2-[2-(2-Amino-ethoxy)-ethoxy]-acetyl)2-(γ-Glu)-CO-(CH2)14-CH3)GGK((2-[2-(2-Amino-ethoxy … (peptide)
peptide: YXEGTXTSDXSIXLDXIAQXEFIXXLIKGGKSSGAPPPS
modifications: Aib2, αMeF(2F)6, 4Pal10, αMeL13, Orn16, Aib20, D-Glu24, αMeY25, K28(Z1), K31(Z1), C-term NH2; Z1=AEEA2-(γ-Glu)-CO-(CH2)14-CH3
Turning to B12, the inhibitory constant (Ki) came to 0.867 nM with human GLP-1 receptor, 3.82 nM with human glucagon receptor and 0.0863 nM in the experiment with human GIP receptor.

B13: Y-Aib-EGT-αMeF(2F)-TSD-4Pal-SI-αMeL-LD-Orn-K((2-[2-(2-Amino-ethoxy)-ethoxy]-acetyl)2-(γ-Glu)-CO-(CH2)14-CH3)AQ-Aib-EFI-(D-Glu)-αMeY-LIK((2-[2-(2-Amino-ethoxy)-e … (peptide)
peptide: YXEGTXTSDXSIXLDXKAQXEFIXXLIKGGPSSGAPPPS
modifications: Aib2, αMeF(2F)6, 4Pal10, αMeL13, Orn16, K17(Z1), Aib20, D-Glu24, αMeY25, K28(Z1), C-term NH2; Z1=AEEA2-(γ-Glu)-CO-(CH2)14-CH3
Consider B13, for which the inhibition constant (Ki) was found to be 0.251 nM with human GLP-1 receptor, 1.18 nM with human glucagon receptor and 0.0238 nM with human GIP receptor.

B14: Y-Aib-EGT-αMeF(2F)-TSDK((2-[2-(2-Amino-ethoxy)-ethoxy]-acetyl)2-(γ-Glu)-CO-(CH2)10-CH3)-Aib-I-αMeL-LD-Orn-K((2-[2-(2-Amino-ethoxy)-ethoxy]-acetyl)2-(γ-Glu)-CO-( … (peptide)
peptide: YXEGTXTSDKXIXLDXKAQXEFIXXLIEGGPSSGAPPPS
modifications: Aib2, αMeF(2F)6, K10(Z1), Aib11, αMeL13, Orn16, K17(Z1), Aib20, D-Glu24, αMeY25, C-term NH2; Z1=AEEA2-(γ-Glu)-CO-(CH2)10-CH3
Turning to B14, the values for the inhibition constant (Ki) with human GLP-1 receptor, in the experiment with human glucagon receptor and with human GIP receptor were 0.289 nM, 132 nM and 0.0161 nM, respectively.
